“And” between values parts separate entries of the source, which are not always exact repeats. Identical values can stand only once. Blank lines part the entries; values can stand above or below the molecule they belong to.
Columns and labels:
human CD28 [1] = target: T1, human CD28 (human, UniProt P10747 19-220); test: flow cytometry, CD28-transfected cells
T1 construct: whole, on cells

human PD-L1 (human) = human PD-L1 (human) (UniProt Q9NZQ7); test: flow cytometry, PD-L1-transfected cells
[2] = target: human CD28, full-length, expressed on transfected cells (human) (UniProt P10747); test: flow cytometry, transfected cells
[3] = target: human PD-L1, full-length, expressed on transfected cells (human) (UniProt Q9NZQ7); test: flow cytometry, transfected cells
human PD-L1, full-length, expressed on transfected cells (human), sequence (Q9NZQ7 19-290): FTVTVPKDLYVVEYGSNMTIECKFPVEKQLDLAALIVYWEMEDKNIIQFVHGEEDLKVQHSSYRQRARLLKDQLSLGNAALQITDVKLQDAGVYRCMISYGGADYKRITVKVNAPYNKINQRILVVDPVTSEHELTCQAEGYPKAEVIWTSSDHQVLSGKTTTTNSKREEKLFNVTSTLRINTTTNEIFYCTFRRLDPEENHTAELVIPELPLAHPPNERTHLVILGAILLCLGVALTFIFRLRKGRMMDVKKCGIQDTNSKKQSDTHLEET

human CD28 [4] = target: T1, human CD28; test: flow cytometry, transfected cells; protein from CHO
human ICOS [5] = target: T2, human ICOS (human, UniProt Q9Y6W8 21-199); test: as above
T2 construct: whole, on cells
T2 sequence (looked up): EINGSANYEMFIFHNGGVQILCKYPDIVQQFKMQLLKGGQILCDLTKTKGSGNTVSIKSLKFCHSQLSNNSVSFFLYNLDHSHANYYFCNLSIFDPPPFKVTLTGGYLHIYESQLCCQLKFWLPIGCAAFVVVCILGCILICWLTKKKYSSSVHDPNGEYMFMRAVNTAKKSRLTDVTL

human CTLA-4 [6] = target: T3, human CTLA-4 (human, UniProt P16410 36-223); test: as above
T3 construct: whole, on cells
T3 sequence (P16410 36-223): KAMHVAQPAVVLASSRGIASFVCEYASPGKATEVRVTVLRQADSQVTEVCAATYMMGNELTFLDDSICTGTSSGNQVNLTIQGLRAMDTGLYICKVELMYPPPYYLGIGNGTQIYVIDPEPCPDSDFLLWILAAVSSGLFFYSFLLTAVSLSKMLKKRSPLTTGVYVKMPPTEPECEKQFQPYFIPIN

human CD28 [7] = target: T1, human CD28; test: flow cytometry, transfected cells; protein from 293
human ICOS [8] = target: T2, human ICOS; test: as above
human CTLA-4 [9] = target: T3, human CTLA-4; test: as above
human CD28 [10] = target: T1, human CD28; test: flow cytometry, transfected cells; protein from CHO; remark: listed apart in the source
human ICOS [11] = target: T2, human ICOS; test: as above; remark: listed apart in the source
human CTLA-4 [12] = target: T3, human CTLA-4; test: as above; remark: listed apart in the source
human CTLA-4 [13] = target: T3, human CTLA-4; test: flow cytometry, transfected cells
[14] = target: T4, human ICOS, full length, expressed on cells (human, UniProt Q9Y6W8 21-199); test: flow cytometry on CHO cells transduced for surface expression of full-length human ICOS; Fc protein 32 pM to 100 nM, PE anti-human IgG, MFI
T4 sequence: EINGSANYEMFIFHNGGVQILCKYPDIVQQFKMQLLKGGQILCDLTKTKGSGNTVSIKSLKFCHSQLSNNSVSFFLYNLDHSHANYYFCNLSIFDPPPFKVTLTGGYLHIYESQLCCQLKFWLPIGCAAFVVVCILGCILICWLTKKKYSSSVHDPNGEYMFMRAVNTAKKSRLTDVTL

[15] = target: human CD28, full length, expressed on cells (human, UniProt P10747 19-220); test: flow cytometry of human T cells from blood of treated GVHD mice
[16] = target: human CD28, full length, expressed on cells (human) (UniProt P10747); test: flow cytometry, ECD-Fc on CD28-transfected HEK293 cells

human PD-L1 (human), sequence (Q9NZQ7 19-290): as the sequence (Q9NZQ7 19-290) above

Molecule: ICOSL Y47H/N52S/V107A/F120S ECD-Fc (Fc fusion)
parental ratio of MFI (human CD28 [1]): 0.31 fold vs WT

Molecule: ICOSL T43A/N52H/N57Y/L74Q/D89G/V110D/F172S ECD-Fc (Fc fusion)
parental ratio of MFI (human CD28 [1]): 0.49 fold vs WT

Molecule: stacked Fc fusion: Domain 1 CD80 WT / Domain 2 ICOSL WT / Fc
MFI [3]: 2660 MFI

Molecule: ICOSL F27S/N52H/N57Y/V110N ECD-Fc (Fc fusion)
MFI (human CD28 [1]): 8610 MFI and 4160 MFI
parental ratio of MFI (human CD28 [1]): 1.92 fold vs WT and 0.93 fold vs WT

B2: Wildtype ICOSL ECD (control of Tables 30C and 30D) (Fc fusion, not shown: a dimerising Fc or GST)
chain: DTQEKEVRAMVGSDVELSCACPEGSRFDLNDVYVYWQTSESKTVVTYHIPQNSSLENVDSRYRNRALMSPAGMLRGDFSLRLFNVTPQDEQKFHCLVLSQSLGFQEVLSVEVTLHVAANFSVPVVSAPHSPSQDELTFTCTSINGYPRPNVYWINKTDNSLLDQALQNDTVFLNMRGLYDVVSVLRIARTPSVNIGCCIENVLLQQNLTVGSQTGNDIGERDKITENPVSTGEKNAAT
MFI (human CTLA-4 [13]): 7580 MFI
MFI (human CTLA-4 [9]): 12100 MFI

B5: ICOSL (N52H/N57Y/Q100R) (Fc fusion, not shown: a dimerising Fc or GST; small tags and cut ends)
chain: DTQEKEVRAMVGSDVELSCACPEGSRFDLNDVYVYWQTSESKTVVTYHIPQHSSLEYVDSRYRNRALMSPAGMLRGDFSLRLFNVTPQDEQKFHCLVLSRSLGFQEVLSVEVTLHVAANFSV
notes: also called ICOSL H238; parental ICOSL only protein
EC50 (read off the curve) [14]: ~0.5 nM

B6: ICOSL IgV with N52H/N57Y/Q100R, Fc fusion (Fc fusion)
chain: DTQEKEVRAMVGSDVELSCACPEGSRFDLNDVYVYWQTSESKTVVTYHIPQHSSLEYVDSRYRNRALMSPAGMLRGDFSLRLFNVTPQDEQKFHCLVLSRSLGFQEVLSVEVTLHVAANFSVGGGGSGGGGSEPKSSDKTHTCPPCPAPEAEGAPSVFLFPPKPKDTLMISRTPEVTCVVVDVSHEDPEVKFNWYVDGVEVHNAKTKPREEQYNSTYRVVSVLTVLHQDWLNGKEYKCKVSNKALPAPIEKTISKAKGQPREPQVYTLPPSREEMTKNQVSLTCLVKGFYPSDIAVEWESNGQPENNYKTTPPVLDSDGSFFLYSKLTVDKSRWQQGNVFSCSVMHEALHNHYTQKSLSLSPG
notes: also called ICOSCL IgV with N52H/N57Y/Q100R
MFI (human CD28 [4]): 84600 MFI
MFI ratio to WT (human CD28 [4]): 49 fold
MFI (human ICOS [5]): 118000 MFI
MFI ratio to WT (human ICOS [5]): 1.2 fold
MFI (human CTLA-4 [6]): 205000 MFI
MFI ratio to WT (human CTLA-4 [6]): 27 fold
MFI (human CD28 [7]): 16600 MFI
MFI ratio to WT (human CD28 [7]): 4.7 fold
MFI (human ICOS [8]): 9380 MFI
MFI ratio to WT (human ICOS [8]): 0.8 fold
MFI (human CTLA-4 [9]): 9670 MFI
MFI ratio to WT (human CTLA-4 [9]): 0.8 fold
MFI (human CD28 [10]): 17300 MFI
MFI ratio to WT (human CD28 [10]): 4.9 fold
MFI (human ICOS [11]): 8670 MFI
MFI ratio to WT (human ICOS [11]): 0.7 fold
MFI (human CTLA-4 [12]): 9040 MFI
MFI ratio to WT (human CTLA-4 [12]): 0.7 fold

Other lines, results leading:

parental ratio of MFI (human CD28 [1]): 0.93 fold vs WT
Molecule: ICOSL N52H/N57Y/Q100R/V110D/V116A/L161M/F172S/S192G/C198R ECD-Fc (Fc fusion)

MFI (human PD-L1 (human)): 1230 MFI
Molecule: stack CD80 WT IgV / ICOSL WT IgV / Fc (Fc fusion)

MFI (human PD-L1 (human)): 3000 MFI
Molecule: stack ICOSL WT IgV / CD80 WT IgV / Fc (Fc fusion)

MFI [2]: 6340 MFI
Molecule: stacked Fc fusion: Domain 1 NKp30 WT / Domain 2 ICOSL WT / Fc

MFI [2]: 7920 MFI
Molecule: stacked Fc fusion: Domain 1 ICOSL WT / Domain 2 NKp30 WT / Fc

MFI (human CD28 [4]): 110000 MFI
MFI ratio to WT (human CD28 [4]): 63.9 fold
MFI (human ICOS [5]): 136000 MFI
MFI ratio to WT (human ICOS [5]): 1.4 fold
MFI (human CTLA-4 [6]): 323000 MFI
MFI ratio to WT (human CTLA-4 [6]): 42.6 fold
MFI (human CD28 [7]): 12900 MFI
MFI ratio to WT (human CD28 [7]): 3.6 fold
MFI (human ICOS [8]): 16000 MFI
MFI ratio to WT (human ICOS [8]): 1.4 fold
MFI (human CTLA-4 [9]): 8180 MFI
MFI ratio to WT (human CTLA-4 [9]): 0.7 fold
MFI (human CD28 [10]): 14400 MFI
MFI ratio to WT (human CD28 [10]): 4.1 fold
MFI (human ICOS [11]): 12600 MFI
MFI ratio to WT (human ICOS [11]): 1.1 fold
MFI (human CTLA-4 [12]): 8710 MFI
MFI ratio to WT (human CTLA-4 [12]): 0.7 fold
B1: ICOSL ECD with N52H/N57Y/Q100R/F172S, (G4S)2-Fc fusion (Fc fusion)
chain: DTQEKEVRAMVGSDVELSCACPEGSRFDLNDVYVYWQTSESKTVVTYHIPQHSSLEYVDSRYRNRALMSPAGMLRGDFSLRLFNVTPQDEQKFHCLVLSRSLGFQEVLSVEVTLHVAANFSVPVVSAPHSPSQDELTFTCTSINGYPRPNVYWINKTDNSLLDQALQNDTVSLNMRGLYDVVSVLRIARTPSVNIGCCIENVLLQQNLTVGSQTGNDIGERDKITENPVSTGEKNAATGGGGSGGGGSEPKSSDKTHTCPPCPAPEAEGAPSVFLFPPKPKDTLMISRTPEVTCVVVDVSHEDPEVKFNWYVDGVEVHNAKTKPREEQYNSTYRVVSVLTVLHQDWLNGKEYKCKVSNKALPAPIEKTISKAKGQPREPQVYTLPPSREEMTKNQVSLTCLVKGFYPSDIAVEWESNGQPENNYKTTPPVLDSDGSFFLYSKLTVDKSRWQQGNVFSCSVMHEALHNHYTQKSLSLSPG
notes: also called ICOSCL ECD with N52H/N57Y/Q100R/F172S

EC50 (read off the curve) [14]: ~0.8 nM
B3: ICOSL (N52D) (Fc fusion, not shown: a dimerising Fc or GST; small tags and cut ends)
chain: DTQEKEVRAMVGSDVELSCACPEGSRFDLNDVYVYWQTSESKTVVTYHIPQDSSLENVDSRYRNRALMSPAGMLRGDFSLRLFNVTPQDEQKFHCLVLSQSLGFQEVLSVEVTLHVAANFSV
notes: also called ICOSL H79; parental ICOSL only protein

EC50 (read off the curve) [14]: ~0.4 nM
B4: ICOSL (N52L/N57H/Q100R) (Fc fusion, not shown: a dimerising Fc or GST; small tags and cut ends)
chain: DTQEKEVRAMVGSDVELSCACPEGSRFDLNDVYVYWQTSESKTVVTYHIPQLSSLEHVDSRYRNRALMSPAGMLRGDFSLRLFNVTPQDEQKFHCLVLSRSLGFQEVLSVEVTLHVAANFSV
notes: also called ICOSL H3447; parental ICOSL only protein

binding result [15]: binds
B7: variant ICOSL IgV-Fc (N52H/N57Y/Q100R) (Fc fusion)
chain: DTQEKEVRAMVGSDVELSCACPEGSRFDLNDVYVYWQTSESKTVVTYHIPQHSSLEYVDSRYRNRALMSPAGMLRGDFSLRLFNVTPQDEQKFHCLVLSRSLGFQEVLSVEVTLHVAANFSVEPKSSDKTHTCPPCPAPEAEGAPSVFLFPPKPKDTLMISRTPEVTCVVVDVSHEDPEVKFNWYVDGVEVHNAKTKPREEQYNSTYRVVSVLTVLHQDWLNGKEYKCKVSNKALPAPIEKTISKAKGQPREPQVYTLPPSRDELTKNQVSLTCLVKGFYPSDIAVEWESNGQPENNYKTTPPVLDSDGSFFLYSKLTVDKSRWQQGNVFSCSVMHEALHNHYTQKSLSLSPG

CD28 MFI parental ratio (ratio to WT ICOSL) [16]: 0.89
B8: variant ICOSL ECD-Fc F120S/Y152H/N201S (Fc fusion)
chain: DTQEKEVRAMVGSDVELSCACPEGSRFDLNDVYVYWQTSESKTVVTYHIPQNSSLENVDSRYRNRALMSPAGMLRGDFSLRLFNVTPQDEQKFHCLVLSQSLGFQEVLSVEVTLHVAANSSVPVVSAPHSPSQDELTFTCTSINGYPRPNVHWINKTDNSLLDQALQNDTVFLNMRGLYDVVSVLRIARTPSVNIGCCIESVLLQQNLTVGSQTGNDIGERDKITENPVSTGEKNAATAAAEPKSSDKTHTCPPCPAPELLGGPSVFLFPPKPKDTLMISRTPEVTCVVVDVSHEDPEVKFNWYVDGVEVHNAKTKPCEEQYGSTYRCVSVLTVLHQDWLNGKEYKCKVSNKALPAPIEKTISKAKGQPREPQVYTLPPSREEMTKNQVSLTCLVKGFYPSDIAVEWESNGQPENNYKTTPPVLDSDGSFFLYSKLTVDKSRWQQGNVFSCSVMHEALHNHYTQKSLSLSPGK

CD28 MFI [16]: 16 MFI
CD28 MFI parental ratio (ratio to WT ICOSL) [16]: 0.87
B9: variant ICOSL ECD-Fc S54F/V193A (Fc fusion)
chain: DTQEKEVRAMVGSDVELSCACPEGSRFDLNDVYVYWQTSESKTVVTYHIPQNSFLENVDSRYRNRALMSPAGMLRGDFSLRLFNVTPQDEQKFHCLVLSQSLGFQEVLSVEVTLHVAANFSVPVVSAPHSPSQDELTFTCTSINGYPRPNVYWINKTDNSLLDQALQNDTVFLNMRGLYDVVSVLRIARTPSANIGCCIENVLLQQNLTVGSQTGNDIGERDKITENPVSTGEKNAATAAAEPKSSDKTHTCPPCPAPELLGGPSVFLFPPKPKDTLMISRTPEVTCVVVDVSHEDPEVKFNWYVDGVEVHNAKTKPCEEQYGSTYRCVSVLTVLHQDWLNGKEYKCKVSNKALPAPIEKTISKAKGQPREPQVYTLPPSREEMTKNQVSLTCLVKGFYPSDIAVEWESNGQPENNYKTTPPVLDSDGSFFLYSKLTVDKSRWQQGNVFSCSVMHEALHNHYTQKSLSLSPGK

From patent US20230235012A1 (ALPINE IMMUNE SCIENCES, published 2023)
